Measurements: publication PMC8196007

Target: solubilized kinase domain of B-Raf (sB-Raf), unlabeled (human) (UniProt P15056)
Assay: native MS; LILBID-MS of the BS3-crosslinked sample and of non-crosslinked mixtures, sB-Raf:CDC-37:FKB-6:HSP-90 = 1:1:1:1 or as indicated; 25 mM Tris, 20 mM KCl, pH 7.5

- stoichiometry N: 1
B1: nematode CDC-37 (natural protein)
chain: MPIDYSKWKDIEVSDDEDDTHPNIDTPSLFRWRHQARLERMAEKKMEQEKIDKEKGTTSKKMEELEKKLAAADVTDKSDIQKQIDEVKAQEEAWRKKEAELEEKERLEPWNVDTIGHEAFSTSRINKITEKKPQAPKTDEEDTHAMSTFFETHESLLEKMAVLKNGAKSTELFLAEHPHMASEYTANWLTIEALNAAIDFNEEKMKTMAEQCIIIQYLLELSKSLNAVATNTTVQKQFFKKFEAAEPVYMKHYQDEVKAFEDRLRTRAQTKRDAAMEEAEAEEKAERMKSAPGGIDPQEVFEQLPEEMRKCFEAHDIEALKGVAQKMDEEVFKYHFDRCIASGLWVPGKADDDDDDEEAAPAEEEPTTSS
